According to patent US20260242478A1 (published 2026):
Where no end group is shown, it is not given here.

How the values were obtained:
[1] = biological target: T1, Anti-CD28 Fab (SEQ ID NOs: 696, 697); assay: phage binding ELISA; biotinylated anti-CD28 Fab on neutravidin plate, bound phage detected with anti-M13 HRP
T1 construct: In the phage ELISA the Fab was biotinylated and captured on neutravidin coated plates
T1 sequence (VH, as listed by the source, chain 1 of 2): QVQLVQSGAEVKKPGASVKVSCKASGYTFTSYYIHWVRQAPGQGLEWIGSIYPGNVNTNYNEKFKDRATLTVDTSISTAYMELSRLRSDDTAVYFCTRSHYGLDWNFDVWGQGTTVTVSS
T1 sequence (VL, as listed by the source, chain 2 of 2): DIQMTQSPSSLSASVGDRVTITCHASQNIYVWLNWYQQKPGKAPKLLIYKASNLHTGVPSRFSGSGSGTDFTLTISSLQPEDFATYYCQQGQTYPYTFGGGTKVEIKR
Description: (§1) Clonal phage were harvested as crude supematants and screened via standard ELISAs. […] Prior to the addition of clonal phage, wells were incubated with blocking buffer and CD28 antigen or blocking buffer alone. Without washing or aspirating, clonal phage supematants were then added to the wells and incubated for a short time. Wells were then washed followed by detection of bound phage using a horse radish conjugated anti-M13 antibody.

[2] = biological target: T1, Anti-CD28 Fab (SEQ ID NOs: 696, 697); assay: phage binding ELISA; Fab-coated wells pre-incubated with CD28 antigen as competitor;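 further: clonal phage supernatants added to wells preincubated with CD28 antigen or blocking buffer only, bound phage detected with HRP-conjugated anti-M13 antibody, buffer-only wells as control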
Description: as §1

[3] = biological target: T2, Anti-CD28 Fab (SEQ ID NOs: 696, 697); assay: phage binding ELISA on captured anti-CD28 Fab, wells pre-incubated with CD28 antigen as competitor
T2 construct: In the phage ELISA the Fab was biotinylated and captured on neutravidin coated plates
T2 sequence (VH, as listed by the source, chain 1 of 2): as the sequence (VH, as listed by the source, chain 1 of 2) above
T2 sequence (VL, as listed by the source, chain 2 of 2): as the sequence (VL, as listed by the source, chain 2 of 2) above
Description: (§2) Clonal phage were harvested as crude supematants and screened via standard ELISAs. […] Prior to the addition of clonal phage, wells were incubated with blocking buffer and CD28 antigen or blocking buffer alone. Without washing or aspirating, clonal phage supematants were then added to the wells and incubated for a short time. Wells were then washed followed by detection of bound phage using a horse radish conjugated anti-M13 antibody. Clonal phage of interest were then sent for sequence analysis.

[4] = biological target: T2, Anti-CD28 Fab (SEQ ID NOs: 696, 697); assay: phage binding ELISA; biotinylated anti-CD28 Fab on neutravidin plate, bound phage detected with anti-M13-HRP;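 further: clonal phage tested as crude supernatants, given a short incubation in the Fab-captured wells before bound phage were read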
Description: as §2

[5] = biological target: T3, Anti-CD28 Fab (SEQ ID NOs: 696, 697); assay: as above
T3 construct: Biotinylated and captured on neutravidin coated plates in the phage ELISA
T3 sequence (VH, as listed by the source, chain 1 of 2): as the sequence (VH, as listed by the source, chain 1 of 2) above
T3 sequence (VL, as listed by the source, chain 2 of 2): as the sequence (VL, as listed by the source, chain 2 of 2) above
Description: as §2

[6] = biological target: T3, Anti-CD28 Fab (SEQ ID NOs: 696, 697); assay: phage binding ELISA on captured anti-CD28 Fab; competitor: CD28 antigen pre-incubated in the well;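 further: clonal phage supernatants added briefly to wells preblocked with or without CD28, bound phage detected through an HRP-linked anti-M13 antibody, wells with blocking buffer alone as comparison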
Description: as §2

[7] = biological target: T4, Anti-CD28 Fab (SEQ ID NOs: 696, 697); assay: phage ELISA; captured anti-CD28 Fab pre-incubated with CD28 antigen as competitor, anti-M13-HRP
T4 construct: In the phage ELISA the Fab was biotinylated and captured on neutravidin coated plates
T4 sequence (VH, as listed by the source, chain 1 of 2): as the sequence (VH, as listed by the source, chain 1 of 2) above
T4 sequence (VL, as listed by the source, chain 2 of 2): as the sequence (VL, as listed by the source, chain 2 of 2) above
Description: as §1

[8] = biological target: T4, Anti-CD28 Fab (SEQ ID NOs: 696, 697); assay: phage ELISA; biotinylated anti-CD28 Fab on neutravidin plate, clonal phage detected with anti-M13-HRP
Description: as §1

Binder	Anti-CD28 Fab (SEQ ID NOs: 696, 697) signal [1]	Anti-CD28 Fab signal in the presence of CD28 [2]	Phage binding ELISA, Anti-CD28 Fab signal in the presence of CD28 [7]	Phage binding ELISA, Anti-CD28 Fab signal [8]	other results
GCAAGFHYPWPLCL (peptide, not shown: large carriers, cysteine pairing not given here; also: displayed as fusion to phage pIII, pIII and linker not given here, Clonal phage of the Peptide-92 optimisation library, tested as crude phage supernatant) [Phage-1480]	1.74	0.08	–	–	–
TCSAGATWPWPICL (Tested as clonal phage supernatant; not shown: fused to the pIII filament of the bacteriophage) [Phage-1444 (peptide-92 library clone, SEQ ID NO: 1740)]	–	–	–	–	Anti-CD28 Fab signal in the presence of CD28 (phage binding ELISA) [3]: 0.08; Anti-CD28 Fab signal (phage binding ELISA) [4]: 1.89
SCKAGAPYYWPGCF (tested as crude phage supernatant) [Phage-1535]	–	–	–	–	Anti-CD28 Fab (SEQ ID NOs: 696, 697) signal [5]: 1.54; Anti-CD28 Fab signal in the presence of CD28 [6]: 0.08
TCAAGAHYAWPECF (peptide, not shown: large carriers, Clonal phage of the Peptide-92 optimisation library, tested as crude phage supernatant) [Phage-1487]	1.72	0.06	–	–	–
TCAAGAAWPWPHCL (peptide, not shown: large carriers, cysteine pairing not given here; also: displayed as fusion to phage pIII, pIII and linker not given here, Clonal phage of the Peptide-92 optimisation library, tested as crude phage supernatant) [Phage-1482]	1.73	0.06	–	–	–
QCAAGAMWTWPACF (tested as crude phage supernatant) [Phage-1537]	–	–	–	–	Anti-CD28 Fab (SEQ ID NOs: 696, 697) signal [5]: 1.54; Anti-CD28 Fab signal in the presence of CD28 [6]: 0.06
TCSAGATYAWPACY (tested as crude clonal phage supernatant) [Phage-1449 peptide (SEQ ID NO: 1745)]	–	–	0.14	1.84	–
RCRAGFSYNWPYCM (peptide, not shown: large carriers, Clonal phage of the Peptide-92 optimisation library, tested as crude phage supernatant) [Phage-1488]	1.72	0.06	–	–	–
TCAAGAVWGWPLCF (peptide, not shown: large carriers, Clonal phage of the Peptide-92 optimisation library, tested as crude phage supernatant) [Phage-1486]	1.73	0.06	–	–	–
QCAAGAMWTWPACF (peptide, not shown: large carriers, Clonal phage of the Peptide-92 optimisation library, tested as crude phage supernatant) [Phage-1483]	1.73	0.07	–	–	–
SCAAVFSFPWSPCL (tested as crude clonal phage supernatant) [Phage-1446 peptide (SEQ ID NO: 1742)]	–	–	0.08	1.87	–
TCSAGAMYPWPWCV (peptide, not shown: large carriers, cysteine pairing not given here; also: fused to phage pIII protein, pIII and linker not given here, Clonal phage of the Peptide-92 optimisation library, tested as crude phage supernatant) [Phage-1478]	1.75	0.08	–	–	–
TCAAGAMWQWPVCL (tested as crude clonal phage supernatant) [Phage-1457 peptide (SEQ ID NO: 1753)]	–	–	0.06	1.81	–
TCSAGAHYEWPYCL (tested as crude clonal phage supernatant) [Phage-1454 peptide (SEQ ID NO: 1750)]	–	–	0.11	1.82	–
LCAEGFDYSWPMCL (tested as crude phage supernatant) [Phage-1533]	–	–	–	–	Anti-CD28 Fab (SEQ ID NOs: 696, 697) signal [5]: 1.55; Anti-CD28 Fab signal in the presence of CD28 [6]: 0.08
TCAAGASYPWPACL (Tested as clonal phage supernatant; not shown: fused to the pIII filament of the bacteriophage) [Phage-1445 (peptide-92 library clone, SEQ ID NO: 1741)]	–	–	–	–	Anti-CD28 Fab signal in the presence of CD28 (phage binding ELISA) [3]: 0.09; Anti-CD28 Fab signal (phage binding ELISA) [4]: 1.89
SCAAGAMWPWPVCV (tested as crude clonal phage supernatant) [Phage-1459 peptide (SEQ ID NO: 1755)]	–	–	0.06	1.8	–
MCSAGATYPWPMCL (peptide, not shown: large carriers, Clonal phage of the Peptide-92 optimisation library, tested as crude phage supernatant) [Phage-1484]	1.73	0.06	–	–	–
TCSAVFSYTWSNCF (tested as crude phage supernatant) [Phage-1536]	–	–	–	–	Anti-CD28 Fab (SEQ ID NOs: 696, 697) signal [5]: 1.54; Anti-CD28 Fab signal in the presence of CD28 [6]: 0.06
LCEEFFHYSWPVCL (peptide, not shown: large carriers, cysteine pairing not given here; also: displayed as fusion to phage pIII, pIII and linker not given here, Clonal phage of the Peptide-92 optimisation library, tested as crude phage supernatant) [Phage-1481]	1.74	0.06	–	–	–

Binder	Anti-CD28 Fab (SEQ ID NOs: 696, 697) signal [1]	Anti-CD28 Fab signal in the presence of CD28 [2]	Phage binding ELISA, Anti-CD28 Fab signal in the presence of CD28 [7]	Phage binding ELISA, Anti-CD28 Fab signal [8]	other results
MCAAGAMYAWPTCL (peptide, not shown: large carriers, cysteine pairing not given here; also: fused to phage pIII protein, pIII and linker not given here, Clonal phage of the Peptide-92 optimisation library, tested as crude phage supernatant) [Phage-1475]	1.75	0.09	–	–	–
TCTAGFSYNWPMCF (tested as crude clonal phage supernatant) [Phage-1448 peptide (SEQ ID NO: 1744)]	–	–	0.06	1.85	–
SCAAVFPYPWPPCF (peptide, not shown: large carriers, cysteine pairing not given here; also: fused to phage pIII protein, pIII and linker not given here, Clonal phage of the Peptide-92 optimisation library, tested as crude phage supernatant) [Phage-1477]	1.75	0.06	–	–	–
WCAAVFSYSWPLCL (peptide, not shown: large carriers, cysteine pairing not given here; also: displayed as fusion to phage pIII, pIII and linker not given here, Clonal phage of the Peptide-92 optimisation library, tested as crude phage supernatant) [Phage-1479]	1.75	0.06	–	–	–
TCAAGASFPWPWCL (peptide, not shown: large carriers, cysteine pairing not given here; also: fused to phage pIII protein, pIII and linker not given here, Clonal phage of the Peptide-92 optimisation library, tested as crude phage supernatant) [Phage-1476]	1.75	0.06	–	–	–
TCSAGATFHWPQCF (tested as crude clonal phage supernatant) [Phage-1453 peptide (SEQ ID NO: 1749)]	–	–	0.08	1.83	–
LCKPGVPYQWPTCF (tested as crude clonal phage supernatant) [Phage-1456 peptide (SEQ ID NO: 1752)]	–	–	0.05	1.82	–
TCSAGFSYSWPACF (tested as crude clonal phage supernatant) [Phage-1447 peptide (SEQ ID NO: 1743)]	–	–	0.07	1.86	–
LCRAGAMWPWPTCL (tested as crude clonal phage supernatant) [Phage-1452 peptide (SEQ ID NO: 1748)]	–	–	0.06	1.83	–
TCSAGATYSWPQCL (tested as crude clonal phage supernatant) [Phage-1450 peptide (SEQ ID NO: 1746)]	–	–	0.07	1.84	–
TCSAGAYYAWPVCL (tested as crude clonal phage supernatant) [Phage-1451 peptide (SEQ ID NO: 1747)]	–	–	0.08	1.84	–
QCAAGASYPWPVCL (tested as crude clonal phage supernatant) [Phage-1455 peptide (SEQ ID NO: 1751)]	–	–	0.07	1.82	–
TCSAGATYIWPMCF (Tested as clonal phage supernatant; not shown: fused to the pIII filament of the bacteriophage) [Phage-1442 (peptide-92 library clone, SEQ ID NO: 1738)]	–	–	–	–	Anti-CD28 Fab signal in the presence of CD28 (phage binding ELISA) [3]: 0.08; Anti-CD28 Fab signal (phage binding ELISA) [4]: 1.9
SCAAGAAYPWPACL (tested as crude clonal phage supernatant) [Phage-1460 peptide (SEQ ID NO: 1756)]	–	–	0.06	1.8	–
WCAAGATWPWPLCI (peptide, not shown: large carriers, Clonal phage of the Peptide-92 optimisation library, tested as crude phage supernatant) [Phage-1489]	1.7	0.17	–	–	–
SCSAGAAWPWPWCL (tested as crude phage supernatant) [Phage-1532]	–	–	–	–	Anti-CD28 Fab (SEQ ID NOs: 696, 697) signal [5]: 1.55; Anti-CD28 Fab signal in the presence of CD28 [6]: 0.08
TCRAGATYNWPFCL (Tested as clonal phage supernatant; not shown: fused to the pIII filament of the bacteriophage) [Phage-1443 (peptide-92 library clone, SEQ ID NO: 1739)]	–	–	–	–	Anti-CD28 Fab signal in the presence of CD28 (phage binding ELISA) [3]: 0.07; Anti-CD28 Fab signal (phage binding ELISA) [4]: 1.9
PCSAGATYAWLYCV (tested as crude clonal phage supernatant) [Phage-1458 peptide (SEQ ID NO: 1754)]	–	–	0.06	1.81	–
TCSAGATYSWPFCF (tested as crude phage supernatant) [Phage-1534]	–	–	–	–	Anti-CD28 Fab (SEQ ID NOs: 696, 697) signal [5]: 1.55; Anti-CD28 Fab signal in the presence of CD28 [6]: 0.07
TCAAGATYPWPSCL (peptide, not shown: large carriers, Clonal phage of the Peptide-92 optimisation library, tested as crude phage supernatant) [Phage-1485]	1.73	0.05	–	–	–
